Reference: patent publication US20210171616A1 (Eli Lilly, published 2021)
Where a chain is given by its changes, count along the chain named.

T1: PACAP27 (human, L at residue 27 modified by C-terminal amidation)
T1 peptide: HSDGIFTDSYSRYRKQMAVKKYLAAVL

T2: VIP (UniProt P01282 125-152)
T2 peptide (looked up): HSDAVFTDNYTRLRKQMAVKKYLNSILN

T3: PACAP38 (human, K at residue 38 modified by C-terminal amidation)
T3 peptide: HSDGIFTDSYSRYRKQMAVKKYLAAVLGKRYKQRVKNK

T4: N-terminal biotinylated PACAP27 (custom synthesis, CPC Scientific) (human, N-terminal biotin; L at residue 27 modified by C-terminal amidation (as stated for SEQ ID NO 14))
T4 construct: Custom peptide; also called Antigen (PACAP27)
T4 peptide: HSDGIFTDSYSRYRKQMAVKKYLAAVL

T5: N-terminal biotinylated PACAP38 (Anaspec, #23590) (human, N-terminal biotin; K at residue 38 modified by C-terminal amidation (as stated for SEQ ID NO 13))
T5 construct: Bought peptide; also called Antigen (PACAP38)
T5 peptide: T3 peptide

B1: Exemplified Antibody A (antibody, human IgG4 S228P, kappa, F234A L235A, V domains shown)
VH: EVQLLESGGGLVQPGGSLRLSCAASGFTFSSYYMSWVRQAPGKGLEWVSAISLSGGSTYYADSHKGRFTISRDNSKNTLYLQMNSLRAEDTAVYYCVREVGASNHNYYGMDVWGQGTMVTVSS
VL: DIQMTQSPSSLSASVGDRVTITCRASQSISRWLAWYQQKPGKAPKLLIHDASQLLEGVPSRFSGSGSGTDFTFTISSLQPEDIATYYCQQFDLLPLTFGGGTKVEIKR
notes: IgG4, kappa light chain; also called Exemplified Ab A; Ab A
B2: Exemplified Antibody C (antibody, human IgG4 S228P, kappa, F234A L235A, V domains shown)
VH: B1 VH with D62E, N104T
VL: B1 VL with S30W, L55F
notes: IgG4, kappa light chain; also called Exemplified Ab C; Ab C
B3: Exemplified Antibody D (antibody, human IgG4 S228P, kappa, F234A L235A, V domains shown)
VH: B1 VH with D62Q, N104T
VL: B1 VL with S30W, L55F
notes: IgG4, kappa light chain; also called Exemplified Ab D; Ab D

Tests used:
PACAP27 [1] = molecular target: T1, PACAP27; test: cell-based or functional assay
VIP = molecular target: T2, VIP; test: cell-based or functional assay
PACAP38 [2] = molecular target: T3, PACAP38; test: cell-based or functional assay
[3] = molecular target: T4, N-terminal biotinylated PACAP27 (custom …); test: kinetic exclusion 96-well MSD plate assay, solution equilibrium at 37 C, 30 pM biotinylated antigen
Method: (§1) Binding affinity (KD) for each antibody-antigen complex is determined using a kinetic exclusion 96-well plate-based assay (adapted from Estep et al., mAbs, 2013, 5:270-278). Briefly, a 3-fold dilution series for each Exemplified Ab (set forth in Table 1) is prepared from a starting concentration of 7290 pM to 41 fM; each series including an antibody-blank control. Samples are prepared in 3% (w/v) Blocker A solution (MSD, #R93AA-1) and a fixed final antigen concentration of 30 pM of N-terminal biotinylated PACAP27 (custom synthesis, CPC Scientific) or N-terminal biotinylated PACAP38 (Anaspec, #23590) is added to each sample. A volume of 100 μl of each antigen-antibody sample is added to individual wells of a 96-well microtiter plate (Greiner, EK-20101) in duplicate. The plate is sealed with optical adhesive film (Thermo Fisher Scientific, #4311971) and incubated at 37° C. for 3 to 4 days to allow for sample equilibrium. On the day before analysis, each row of a 96-well MSD Standard plate (MSD, #L15XA) is coated with 30 μl of the corresponding antibody (as used in the titration series) at a concentration of 3 μg/ml in phosphate buffered saline (PBS). On the day of the experiment, the MSD Standard plate is washed once with 150 μl PBS and blocked with 150 μl of 3% Blocker A solution for 45 min at 30° C. with shaking at 300 rpm on a MaxQ 4450 benchtop shaker (Thermo Fisher Scientific). Following three washes with PBS, 50 μl of each antigen-antibody sample (prepared and incubated as described above) is added to the MSD Standard plate and incubated for 150 seconds at 30° C. with shaking at 300 rpm. Following a single wash with PBS, 50 μl of 1 μg/ml SULFO-TAG labeled Streptavidin (MSD, #R32AD-5) prepared in 1% (w/v) Blocker A solution is added and the MSD Standard plate and the plate is incubated at 30° C. for 3 minutes with shaking at 300 rpm. The plate is washed three more times with PBS followed by the addition of 150 μl/well of 1× Read buffer (MSD, #R92TC-2). The MSD Standard plate is read using a MESO Quickplex SQ 120/1300 instrument (Meso Scale Discovery). Data analysis is done using SigmaPlot (Version 12.5, Systat Software) and binding affinity (KD) is determined using SigmaPlot's integrated Four Parameter Logistic Curve Model.

PACAP38 [4] = molecular target: T3, PACAP38; test: cell-based or functional assay
PACAP27 [5] = molecular target: T1, PACAP27; test: cell-based or functional assay
PACAP38 [6] = molecular target: T3, PACAP38; test: cell-based or functional assay
PACAP27 [7] = molecular target: T1, PACAP27; test: cell-based or functional assay
PACAP38 [8] = molecular target: T3, PACAP38; test: cell-based or functional assay
[9] = molecular target: T5, N-terminal biotinylated PACAP38 …; test: kinetic exclusion 96-well MSD plate assay, solution equilibrium at 37 C, 30 pM biotinylated antigen
Method: as §1

| Binder | Inhibition (IC50) of PACAP27 (100 pM) induced cAMP in hPAC1 CHO-K1 cells (PACAP27 [1]) | Inhibition (IC50) of PACAP27 (800 pM) induced cAMP in hVPAC2 CHO-K1 cells (PACAP27 [1]) | Inhibition (IC50) of VIP (800 pM) induced cAMP in hVPAC2 CHO-K1 cells (VIP) | Inhibition (IC50) of PACAP38 (100 pM) induced cAMP in hPAC1 CHO-K1 cells (PACAP38 [2]) | Inhibition (IC50) of PACAP38 (800 pM) induced cAMP in hVPAC2 CHO-K1 cells (PACAP38 [2]) | Kd [3] | Percentage tryptase release upon addition of PACAP38; antibody dose 0 uM (PACAP38 [4]) | Percentage tryptase release upon addition of PACAP38; antibody dose 0.2 uM (PACAP38 [4]) | Percentage tryptase release upon addition of PACAP38; antibody dose 0.6 uM (PACAP38 [4]) | Percentage tryptase release upon addition of PACAP38; antibody dose 1.8 uM (PACAP38 [4]) | Percentage tryptase release upon addition of PACAP38; antibody dose 5.6 uM (PACAP38 [4]) | Percentage tryptase release upon addition of PACAP38; antibody dose 17 uM (PACAP38 [4]) | Percentage tryptase release upon addition of PACAP38; antibody dose 51 uM (PACAP38 [4]) | Percentage tryptase release upon addition of PACAP38; antibody dose 153 uM (PACAP38 [4]) | Percentage tryptase release upon addition of PACAP27; antibody dose 0 uM (PACAP27 [5]) | Percentage tryptase release upon addition of PACAP27; antibody dose 0.2 uM (PACAP27 [5]) | Percentage tryptase release upon addition of PACAP27; antibody dose 0.6 uM (PACAP27 [5]) | Percentage tryptase release upon addition of PACAP27; antibody dose 1.8 uM (PACAP27 [5]) | Percentage tryptase release upon addition of PACAP27; antibody dose 5.6 uM (PACAP27 [5]) | Percentage tryptase release upon addition of PACAP27; antibody dose 17 uM (PACAP27 [5]) | further results |
| --- | --- | --- | --- | --- | --- | --- | --- | --- | --- | --- | --- | --- | --- | --- | --- | --- | --- | --- | --- | --- | --- |
| B1 | 2250 pM | 781 pM | > 100000 pM | 554 pM | 714 pM | 37 pM |  |  |  |  |  |  |  |  |  |  |  |  |  |  |  |
| B2 | 311 pM | 595 pM | > 100000 pM | 303 pM | 325 pM | 14.5 pM | 80.3% | 77.6% | 66.6% | 26.5% | 21.9% | 15.5% | 12.1% | 2.8% | 85.8% | 85.2% | 55.4% | 10.4% | 11.5% | 8% | Percentage tryptase release upon addition of PACAP27; antibody dose 51 uM (PACAP27 [5]): 17.8%; Percentage tryptase release upon addition of PACAP27; antibody dose 153 uM (PACAP27 [5]): 9.7%; Plasma cAMP levels in CD-1 mice after iv PACAP38 (13 nmols/kg); antibody 10 mg/kg sc (PACAP38 [6]): 666 nM; Percentage tryptase release in human mast cells upon addition of 1 uM PACAP27; antibody 153 uM, single point (PACAP27 [7]): 14.2%; Percentage tryptase release in human mast cells upon addition of 1 uM PACAP38; antibody 153 uM, single point (PACAP38 [8]): 5.5%; Kd [9]: 14.6 pM |
| B3 | 212 pM | 515 pM | > 100000 pM | 205 pM | 243 pM | 10.5 pM | 76.5% | 74% | 64.5% | 31.3% | 25.9% | 19.6% | 14.7% | 1.7% | 92.7% | 86.5% | 73% | 20.3% | 16.4% | 19.8% | Percentage tryptase release upon addition of PACAP27; antibody dose 51 uM (PACAP27 [5]): 26%; Percentage tryptase release upon addition of PACAP27; antibody dose 153 uM (PACAP27 [5]): 9.4%; Plasma cAMP levels in CD-1 mice after iv PACAP38 (13 nmols/kg); antibody 10 mg/kg sc (PACAP38 [6]): 560 nM; Percentage tryptase release in human mast cells upon addition of 1 uM PACAP27; antibody 153 uM, single point (PACAP27 [7]): 15.1%; Percentage tryptase release in human mast cells upon addition of 1 uM PACAP38; antibody 153 uM, single point (PACAP38 [8]): 4.2%; Kd [9]: 9 pM |
